Reference: the DeepSol protein solubility set

Experiment: soluble on expression in E. coli; label from the status in PepcDB or PDB records

Which “soluble on expression in E. coli” value does the source give for “MEEPMEVDNKRPKVLTWTEKYRPKTLDDIAYQDEVVTMLKGALQGRDLPHLLFYGPPGTGKTSAALAFCRQLFPKNIFHDRVLDLNASDERGIAVVRQKIQSFSKSSLGHSHREDVLKLKIIILDEVDAMTREAQAAMRRVIEDFSKTTRFILICNYVSRLIPPVVSRCAKFRFKSLPAEIQVQRLRTICDAEGTPMSDDELKQVMEYSEGDLRRAVCTLQSLAPILKSGDDNARNCYLRGSSDSLLISNVCKSILTADVPQIIALTKDITKSCTGVAFIRRCFQQLMDEDVINDENIGVMGKLVATCEKRILDGCDLENNLLDFLLTLRETIQ” here?
Its value is “not soluble”.

Which “soluble on expression in E. coli” value does the source give for “MGSDKIHHHHHHMKFIVKTQMDMEAVAGNYIREVLPNAKVTIAPEGYPGIVIVESEEENALQKILEVPEVEKVYPVLIEVPANLDSIKSAADEIVKYIKEGETFAVRTKKRGKRDFSSVDVNVVLGARIKDLTNAEVNLSYPDKVVQVEIIGEKAYISVIPGKEYTKWKKYPKDKPDCRKLFRKLTIVQMPYWGDYKTARAFGEKIGRAAQAFEVKELIIAPKEKMNAYELMAFIRGVKEGQESRYQIQKEAYPWEVEKVPVTVWDLYQVIRDKRRNRRLIIITDPKGPTLNEVKDKLARDMYYAKEIIIFIGSREGIPIGLFRFADYVVDLAPYMTFATEHGIPATLVALWTIYEEELRRRGEIND” here?
The value was “not soluble”.

For “MENQPKLNSSKEVIAFLAERFPHCFSAEGEARPLKIGIFQDLVERVGGEMNLSKTQLRSALRLYTSSWRYLYGVKPGATRVDLDGNPCGELEEQHVEHARKQLEEAKARVQAQRAEQQAKKREAAAAAGEKEDAPRRERKPRPVARRKEGAERKPRADKPTTKAPRAPREEKHTPVSDISVLTVGQSLKVKAGNNAMDATVLEITKDGVRVQLNSGMSLIVRAEHLVF”, which “soluble on expression in E. coli” value is on record?
Its value is “not soluble”.

For “MPTPRRSGRVIVYTGDGKGKTTAALGLALRAVGRGMNVAVLQFLKSPERTYGEQLALERLGVDVRQLGAGFTWTKTPDIHREALKRAWAVAKEYVYSGRYDMIVLDELNNVLAIDRFPVEDIVSVSEVLELIRTRPPSLHLVITGRAARPELMAAADIVTEMKLIKHDYEQGRTAMKGIEF”, which “soluble on expression in E. coli” value is on record?
Its value is “soluble”.

For “SHLVVESFPSYRDVTLFEGKRVSFYKRAQILVADTWSVLEGKGDGCFKDISSITMFADYRLPQVLAHLGALKYSDDLLKKLLKGEMLSYGDRQEVEIRGCSLWCVELIRDCLLELIEQKGEKPNGEINSILLDYYLWDYAHDHREDMKGIPFHRIRCIYY”, which “soluble on expression in E. coli” value is on record?
The value was “soluble”.

Which “soluble on expression in E. coli” value does the source give for “MSMKQAEFIQAKGYQARVTRTARAKTASIKVEEGMVSVVVPKALPIERIERILQEKHQWIIDKIALHKGLITSSEKQFVSGEAMPYLGRNYRLKVHAGSFEPVKLVQGRLVVIVPEGSVRSNLVREALIGWYKRSALLKLREKVRRYAKVIGVTPKSVNIKTFKSRWGSCNPKGDLDFNWIIVMAPNRIVDYVVVHELCHLKQLDHSPLFWKEVERVMPDYAECKEWLKNNAPKLTFLEHHHHHH” here?
The value was “soluble”.

With “MEQEQRGMAALLSKFRIDYSDVYVIADIGKKPRQETMNTWQSVIDPFIAQDGSCPIGMTTKSELSAQRDKTYRQLRAGELLNEHSINADLIVMTLPVPRKGMVSSSLYMSWLEVMTRNLPPVLLVRGNQQSVNTSSSSTASSPHHLIIPALAINPHLKVFPSHISLKCFFFFRFLLKAYAAAVHPPSRFLCYMKKVTDSIFVSLMNNSRLYCLL” as the sequence, how does the “soluble on expression in E. coli” value read?
Its value is “not soluble”.

For “MGHHHHHHSHTGKTTVAVNLAVFNHIDLFDLDVEEPNDRIFIKGEAEEWPAYRKVPEVRENCNACGVCKDVCQYSAIYVIDKAYPLPELCHSCGACIYLCPEKAMEEVDYQTGKIVRVKSDITLTYGEMRIGEASAVFLIKQVKELMGKNAIIDSPPGASCPMVESVSDADYVILVAEPTPFGLHDLKIAAEVVSDLGLKFGVVVNKHGLPFDGIERYCKEGGVEILGKIPFSKEIAEKYSRGELLHDMKDFFVQLYEG”, which “soluble on expression in E. coli” value is on record?
Its value is “not soluble”.

For “MSLKYYIGLACTGHENALAIVNPDGEIVFAEATERFLQNKRAVNTPPDDPLRIPRLLKQYCSDCDAIVVAKTWSREAPQKMRTDAAHILKALAGTDARTDRDWVARVAFHAGLGDKLIEPNYRLAGNGIERYCSLQGLEHSVRSYEHHLTHAAYACHTSPFDDAVCAVFDGYGEGVHSSYFHYRNGKVEPIRRARSAKGQYGSLASLGLYYGYTICALLGLDIVNGEEWKVMGLAPYGQLNPAFLDVLRRHIYVDGLDLVMDGNAAGTYRELQAFARRPGQSYESVADIAYTAQHYFSELMLEMLAGLRQLGLSDRLVLTGGCALNSTFNGEVIPRSGFAQLYVPPAPSDDGNAVGAALLAYAEDGGAMSRPAFHSPYLGSAIDDRELAPFLKNGAMLGQVPVTPGELCDYVAQELADGKVIGWIQGSAEFGPRSLGNRSILADPRRASMKERINAIVKFREGFRPFAPSILDEFGDRYFEDYSATPYMEKTLKIREAYREAIPAVCHVDHTGRLQTVRRDWNPRFHALLSAFHARTGTPVLLNTSLNVMGKPIVHSAADAFTVFLSTGLDLLVINDHVFSKREGHHHHHH”, which “soluble on expression in E. coli” value is on record?
Its value is “soluble”.

Which “soluble on expression in E. coli” value does the source give for “MRLRVDVIPGEHLAYPDVVLVVDVIRATTTAAAFLEAGAEALYWTPSLESALAFKDEDVVLAGETGGLKPPRFDLGNSPREALSAQVAGRVVVMSTTNGTKAAHAAARTAKHVLLASLYNAHAAARLARELATEEVAILCAGKEGRAGLDDLYTAGVLAEYLGFLGEVEPEDGARVALAVKRAYPDPLEALSLSAAALALKQVGLEADVPFCAQVAKSAAVPVLRGRVGEALIFKRA” here?
The value was “soluble”.

With “MGSSHHHHHHSSGRENLYFQGHMTRTNLITGFLGSGKTTSILHLLAHKDPNEKWAVLVNEFGEVGIDGALLADSGALLKEIPGGCMCCVNGLPMQVGLNTLLRQGKPDRLLIEPTGLGHPKQILDLLTAPVYEPWIDLRATLCILDPRLLLDEKSASNENFRDQLAAADIIVANKSDRTTPESEQALQRWWQQNGGDRQLIHSEHGKVDGHLLDLPRRNLAELPASAAHSHQHVVKKGLAALSLPEHQRWRRSLNSGQGYQACGWIFDADTVFDTIGILEWARLAPVERVKGVLRIPEGLVRINRQGDDLHIETQNVAPPDSRIELISSSEADWNALQSALLKLRLATTA” as the sequence, how does the “soluble on expression in E. coli” value read?
The value was “soluble”.

Which “soluble on expression in E. coli” value does the source give for “GPGSMSHVKAFDPAAQARCDPYYKRNHMGHVVCTLCDVCCSDDNNFIKHLAGKTHSLQLERLERSANREKRLAEEEELNKEAMRRAEQEKATRELLLQQTSAPHASSVTSFAPFGRPEFHYCTEHDPELYQTKVWLEFYFPQAVEGARPLHRWRSAREQEVEKPPNDDVVYLLVACEGYMTVGLKFPSKLPRTSSGLTSWGGYGNAGSDEEKGRYRCSWDPVKKLYELFFIIG” here?
The value was “soluble”.

For “MGSDKIHHHHHHMGDNLILSFRPDLQIKEEAGKIYLQSPVRSLVCQRVSRGLRQLMKTLTTGSGSEDFLSEPVFKEDGAGEVAKFYYHLQQFIERGFISYNVMMEQEILAIYTPFSAAPLYNEKLFKQKQRYRLSRFTYSRRDGQEIILESPLANGRVVLTHWLAAAVLHLLAEACTAGEISMQFPALPKKSLQLFLELLLSAGMLEEVDDAGISAGEGDEVLQQWEFHDLLFHARSRLGPHEQPVGGTYRFWGRIAPLPAVKNPMSGERIKLYRPDMEKLREDDYPFSLVLEERKSIRDYADEPISVQQLGEFLYRSARIKELIKANPPAGLLYEASYRPYPGGGAAYELEIYLAVNECEGLPGGLYHYDPWQHELEKLTTRTSEVEGLLKYCSNAAGLKELPPVSLHITARFQRVAWKYQSLTYSVILKDVGALCQTLYLVATAMDLAPTAIGSGPAKLLCRIAGLNYLQESAVGEFILGNKRI”, which “soluble on expression in E. coli” value is on record?
Its value is “not soluble”.

Which “soluble on expression in E. coli” value does the source give for “MGHHHHHHSHMLSHNTMMKQRKQQATAIMKEVHGNDVDGMDLGKKVSIPRDIMLEELSHLSNRGARLFKMRQRRSDKYTFENFQYQSRAQINHSIAMQNGKVDGSNLEGGSQQAPLTPPNTPDPRSPPNPDNIAPGYSGPLKEIPPEKFNTTAVPKYYQSPWEQAISNDPELLEALYPKLFKPEGKAELPDYRSFTRVATPFGGFEKASRMVKFKVPDFELLLLTDPRFMSFVNPLSGRRSFNRTPKGWISENIPIVITTEPTDDTTVPESEDL” here?
Its value is “not soluble”.

With “MSKDDPINSIFFEHQEAALCAQHALNMLLQDALYKWQDLRDLAIQMDKMEQQILGNANPTPGRSENMNESGYFSIQVLEKALETFSLKLTNIENPAMVDYKNNPLTARAYICNLREHWFVLRKFGNQWFELNSVNRGPKLLSDTYVSMFLHQVSSEGYSIFVVQGVLPRSDADDLISLCPVVPPKVTPKKEQKLEKVMTKFFNTVGKRLGGGSGAPPDSQEEKDLAIAFAMSMETKDGSEVSRSSAEIDEENLRKAIELSQAPGPSEPAEIPLLTRSRSSTPPGASEPFSNAEQQRRDRQKFLERFEKKKEERNDEK” as the sequence, how does the “soluble on expression in E. coli” value read?
The value was “not soluble”.

For “MSVAETEIPIPAATPSLTDACVHCGFCLSDCPSYRVLGRETDSPRGRVYLMDSLQQGRIELSDTVVEHFDTCLGCLACTSACPSGVQYDQLIEEMRQRIAQEHRRPWPEAIWRKLLEHHHHHH”, which “soluble on expression in E. coli” value is on record?
Its value is “not soluble”.

With “MGSDKIHHHHHHLAGERENWFVSIPPRRGSVLDVRGRKIVYDSPEYVAYLDVDFFKRQNGDIKALEKTLQNCGITKSAEEVMEYKFFKLTEGEDKVDVLKKIESELLPFVNIELVYTRKKIQDYATGILLGTVIDGTGKGGIEGFFDDQLQGKRKGFLELRYRGARLSPTLVNYSPPENGKDVWLSLDLDLQRRVYDIISKAVEGNSAEAGHVIVMESKTGRILSMVTTRNWNDLIGGYIEPGSTIKPLVYAIALETHSASPDFTVECEGSIKPVEQLPVIIRDIEKHGLVDFSAGIVKSCNVMSVKVGELITEKTGVEGFYEWLRKVGFGEKTGIEMEGEIAGVLREPKKWSLIDPAEISIGQGIGVTPVQLIASLNIFANDGYWVKPTILKDSPVKKRRVFSKETTDVIRQAMVRVVEEGTGKLAQVKGIAIAGKTGTAQKAVGGEYRNLYHSLFVGFFPAEDPKYTILVHLDSPSGAFYGGEVAAPVFREIVEILTEKEDGRIRIVKGLMPDLRGLPVRDALLVLESLGVKDVEIKGKGWKVSEQTPPPNHPLEGPVILFLSDQK” as the sequence, how does the “soluble on expression in E. coli” value read?
The value was “not soluble”.

With “MTHELISLPYAVDALAPVISKETVEFHHGKHLKTYVDNLNKLIIGTEFENADLNTIVQKSEGGIFNNAGQTLNHNLYFTQFRPGKGGAPKGKLGEAIDKQFGSFEKFKEEFNTAGTTLFGSGWVWLASDANGKLSIEKEPNAGNPVRKGLNPLLGFDVWEHAYYLTYQNRRADHLKDLWSIVDWDIVESRY” as the sequence, how does the “soluble on expression in E. coli” value read?
Its value is “soluble”.

Which “soluble on expression in E. coli” value does the source give for “MGASKYDVKRLVDDYVNRLAKNGVLPDVIDKEPILPRVTLPESEITSQSYRKYPKKPKAIGKVGSTGGNRNGMGAIHPTLISYPEEQRKTNSRVKNNRSNYHIGNIGNIGGNIGNGQKMNRNKNGGRNQGGNHPDNMGIPMFPIARPTPYDLAEYIERGLNTGRSNHRTPQNFRRYPEHECDYYAGPCATSF” here?
The value was “not soluble”.

Which “soluble on expression in E. coli” value does the source give for “MPLSDADYNDPDNEEVAFLSRGLLEACIEFIRETPAGDALRIVAYEFTFKRILLELKAALERGVDVRIVYHATTANEKAIADAKLPENSKGVQILFKRTRPQTPHNKFIVRLKKGKTPVSVWTGSTNFTPSGFLGQTNVGHKVTDGDIAKIYLQLWEGLKADPDDFDATQAAMALTPLEHHHHHH” here?
The value was “soluble”.

With “MKKILALLVIAPLLVSCSGNKNQVENEVFVKDTNGFEILMGQFAHNIENIWGLKEVLIAGPKDYVKYTDQYQTRSHINFDAGTITIETIATTNPAAHLRQAIITTLLMGDDPGSIDLYSDVNDIQISKEPFLYGQVLDNNGEPIRWEWRAAHFADYLLQNKMQTRTSGLHVISFVTIQLVPNHLDKRAHKYLPLVRKSAARYGVEESLILAIMQTESSFNPYAVSRSDALGLMQVVQHTAGKDVFKLKGKSGQPSRSYLFDPENNIDAGTAYLSILQNTYLGGIQNATSRRYAVITSYNGGAGSVLRVFHSDKNKAVGIINTMSPGDVFQTLTTKHPSGESRRYLVKVNSAQKNYRRY” as the sequence, how does the “soluble on expression in E. coli” value read?
Its value is “not soluble”.
